Values joined by “and” are separate entries in the source; they are usually repeats but may differ in a detail not shown here. Equal values may be shown once.
B1: anti-TRAP from Bacillus licheniformis (natural protein, UniProt Q65NU7 1-53, looked up)
chain: MVIATDDLETTCPNCNGSGREEPEPCPKCSGKGVILTAQGSTLLHFIKKHLNE
B2: thioredoxin peroxidase B from human erythrocytes (enzyme, UniProt P32119 1-198, looked up)
chain: MASGNARIGKPAPDFKATAVVDGAFKEVKLSDYKGKYVVLFFYPLDFTFVCPTEIIAFSNRAEDFRKLGCEVLGVSVDSQFTHLAWINTPRKEGGLGPLNIPLLADVTRRLSEDYGVLKTDEGIAYRGLFIIDGKGVLRQITVNDLPVGRSVDEALRLVQAFQYTDEHGEVCPAGWKPGSDTIKPNVDDSKEYFSKHN

Columns and labels:
crystal structure [1] = target: the molecule itself; test: crystal structure
crystal structure [2] = target: the molecule itself; test: crystal structure; remark: listed apart in the source
AUC + SEC = target: the molecule itself; test: AUC + SEC

Protein | stoichiometry N (crystal structure [1]) | stoichiometry N (crystal structure [2]) | stoichiometry N (AUC + SEC)
B1 | 12 |  | 
B2 |  | 10 | 8 and 12

From paper PMC2394828 (Acta Crystallographica Section D: Biological Crystallography, 2007)
